This note sets out measurements from patent publication USRE47150 (Bayer, dated 2018).

Where two headings read alike, the source gives them in different places.

In test [1] the target is T1, human tissue factor pathway inhibitor (TFPI) (human, UniProt P10646 29-304, limits assumed).
T1 construct: bought; also called hTFPI; human TFPI
T1 sequence (looked up): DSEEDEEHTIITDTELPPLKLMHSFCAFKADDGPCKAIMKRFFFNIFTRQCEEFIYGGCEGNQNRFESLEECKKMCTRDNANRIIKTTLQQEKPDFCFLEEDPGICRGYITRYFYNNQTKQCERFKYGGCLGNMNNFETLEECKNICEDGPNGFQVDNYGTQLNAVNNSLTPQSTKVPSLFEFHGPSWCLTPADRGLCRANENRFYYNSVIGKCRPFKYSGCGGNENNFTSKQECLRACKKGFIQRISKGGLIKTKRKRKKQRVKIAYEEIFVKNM
The test is described as follows: SPR, TFPI immobilized.

Test [2] has as its target T2, mouse tissue factor pathway inhibitor (TFPI) (mouse, UniProt O54819 29-289, limits assumed).
T2 construct: bought; also called mTFPI; murine TFPI
T2 sequence (looked up): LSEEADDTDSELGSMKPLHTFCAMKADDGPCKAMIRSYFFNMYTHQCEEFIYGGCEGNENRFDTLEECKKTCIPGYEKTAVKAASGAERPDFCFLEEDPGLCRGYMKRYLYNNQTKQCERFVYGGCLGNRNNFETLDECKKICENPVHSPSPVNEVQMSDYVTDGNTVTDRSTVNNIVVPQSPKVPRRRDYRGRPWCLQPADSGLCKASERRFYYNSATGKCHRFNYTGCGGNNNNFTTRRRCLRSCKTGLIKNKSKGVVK
Briefly: SPR, TFPI immobilized.

For test [3], the target named is T1, human tissue factor pathway inhibitor …. The test is described as follows: SPR, TFPI immobilized. The source holds these as a separate data set.
The target in test [4] is T2, mouse tissue factor pathway inhibitor …. Briefly: SPR, TFPI immobilized. This is another data set of the same source.
For test [5], the target named is T3, recombinant TFPI of the FXa restoring assay (human, mouse or rat; not specified for Tables 9 and 10). Briefly: cell-based or functional assay.
Test [6] deals with T3, recombinant TFPI of the FXa restoring …. Briefly: cell-based or functional assay. This is another data set of the same source.
Test [7] deals with T1, human tissue factor pathway inhibitor …. Briefly: competitive ELISA.
Test [8] concerns the target T2, mouse tissue factor pathway inhibitor …. The test is described as follows: competitive ELISA.
Test [9] concerns the target T1, human tissue factor pathway inhibitor …. Briefly: competitive ELISA. The source holds these as a separate data set.
The target of test [10] is T2, mouse tissue factor pathway inhibitor …. Briefly: competitive ELISA. This is another data set of the same source.
In test [11] the target is T1, human tissue factor pathway inhibitor …. Briefly: SPR, TFPI immobilized. This is another data set of the same source.
Test [12] shares this target. Briefly: competitive ELISA. The source holds these as a separate data set.
For test [13], the target named is T2, mouse tissue factor pathway inhibitor …. The test is described as follows: equilibrium ELISA.

B1: 2A8 wild-type Fab (Fab, V domains shown)
VH: QVQLVESGGGLVQPGGSLRLSCAASGFTFRSYGMSWVRQAPGKGLEWVSSIRGSSSSTYYADSVKGRFTISRDNSKNTLYLQMNSLRAEDTAVYYCARKYRYWFDYWGQGTLVTVSS
VL: DIELTQPPSVSVAPGQTARISCSGDNLRNYYAHWYQQKPGQAPVVVIYYDNNRPSGIPERFSGSNSGNTATLTISGTQAEDEADYYCQSWDDGVPVFGGGTKLTVLG
notes: Fab with c-myc (or HA, or none) and 6xHis tag at the C-terminus of the heavy chain; also called 2A8wt; 2A8 wt
As to B1, in test [1], the Improvement came to 1 fold, the Kd is 2.24 nM, the koff worked out at 0.007 s⁻¹ and the kon stood at 3.13e+06 M⁻¹ s⁻¹. Moreover, in [2], the Improvement was determined as 1 fold; the affinity, expressed as Kd, was 3.51 nM; the koff worked out at 0.00517 s⁻¹; the kon was found to be 1.47e+06 M⁻¹ s⁻¹. In test [3], the KD fold improvement was determined as 1 fold, the Kd is 1.85 nM, the koff came to 0.0038 s⁻¹ and the kon was found to be 2.05e+06 M⁻¹ s⁻¹. Further, in test [4], the KD fold improvement was 1 fold, the Kd stood at 3.29 nM, the koff was 0.0031 s⁻¹ and the kon amounted to 940000 M⁻¹ s⁻¹. Further, in test [5], the “IC50, FXa restoring assay” value was 0.7 µg/mL and the “Improvement vs parental, FXa restoring assay” value was determined as 1 fold. Further, in test [6], the “EC50, FXa restoring assay” value came out at 7.91 nM and the “Improvement vs parental 2A8, FXa restoring assay” value (“Improvement vs parental 2A8” below) amounted to 1 fold.

B2: 2A8 HC_K99L (Fab, V domains shown)
VH: QVQLVESGGGLVQPGGSLRLSCAASGFTFRSYGMSWVRQAPGKGLEWVSSIRGSSSSTYYADSVKGRFTISRDNSKNTLYLQMNSLRAEDTAVYYCARLYRYWFDYWGQGTLVTVSS
VL: DIELTQPPSVSVAPGQTARISCSGDNLRNYYAHWYQQKPGQAPVVVIYYDNNRPSGIPERFSGSNSGNTATLTISGTQAEDEADYYCQSWDDGVPVFGGGTKLTVLG
notes: also called 2A8-9
In [7], B2 showed a variant/wild-type of 13.5 ratio. This molecule came in with a variant/wild-type in test [8] of 10.8 ratio. Further, in [1], the Improvement is 7.22 fold, the Kd amounted to 0.309 nM, the koff was determined as 0.000803 s⁻¹ and the kon amounted to 2.6e+06 M⁻¹ s⁻¹. Also, in test [2], the Improvement was 7.2 fold, the Kd came out at 0.488 nM, the koff came to 0.000759 s⁻¹ and the on-rate constant (kon) came to 1.56e+06 M⁻¹ s⁻¹. In [5], the “IC50, FXa restoring assay” value was 0.181 µg/mL and the “Improvement vs parental, FXa restoring assay” value was determined as 3.9 fold. Also, in test [6], the “EC50, FXa restoring assay” value is 1 nM and the “Improvement vs parental 2A8” value was 7.9 fold.

B3: 2A8-143 (HC S35D+S55R+K99L/LC Y48F+N51V+D91L+V96W) (Fab, V domains shown)
VH: QVQLVESGGGLVQPGGSLRLSCAASGFTFRSYGMDWVRQAPGKGLEWVSSIRGSRSSTYYADSVKGRFTISRDNSKNTLYLQMNSLRAEDTAVYYCARLYRYWFDYWGQGTLVTVSS
VL: DIELTQPPSVSVAPGQTARISCSGDNLRNYYAHWYQQKPGQAPVVVIFYDVNRPSGIPERFSGSNSGNTATLTISGTQAEDEADYYCQSWLDGVPWFGGGTKLTVLG
B3 yielded a variant/HC_K99L in test [9] of 17.8 ratio. Moreover, the variant/HC_K99L in test [10] came out at 13.4 ratio. In [3], the KD fold improvement was determined as 50.9 fold, binding was put at a Kd of 0.0364 nM, the koff worked out at 0.000105 s⁻¹ and the kon was 2.88e+06 M⁻¹ s⁻¹. Also, in test [4], the KD fold improvement was 48.5 fold. For the same molecule, in test [6], the “EC50, FXa restoring assay” value came out at 0.5 nM and the “Improvement vs parental 2A8” value stood at 15.8 fold.

B4: 2A8-216 (HC S31V+I51D+S55R+K99V/LC Y48F+D91L+V96W) (Fab, V domains shown)
VH: QVQLVESGGGLVQPGGSLRLSCAASGFTFRVYGMSWVRQAPGKGLEWVSSDRGSRSSTYYADSVKGRFTISRDNSKNTLYLQMNSLRAEDTAVYYCARVYRYWFDYWGQGTLVTVSS
VL: DIELTQPPSVSVAPGQTARISCSGDNLRNYYAHWYQQKPGQAPVVVIFYDNNRPSGIPERFSGSNSGNTATLTISGTQAEDEADYYCQSWLDGVPWFGGGTKLTVLG
B4 showed a variant/HC_K99L in test [9] of 16.4 ratio. Also, the variant/HC_K99L in test [10] turned out to be 11.9 ratio. In addition, in [3], the KD fold improvement turned out to be 39.6 fold, the dissociation constant Kd worked out at 0.0467 nM, the koff is 0.000154 s⁻¹ and the kon worked out at 3.29e+06 M⁻¹ s⁻¹. In [4], this molecule came in with a KD fold improvement of 63.9 fold, a Kd of 0.0515 nM, an off-rate constant (koff) of 0.000216 s⁻¹ and a kon of 4.19e+06 M⁻¹ s⁻¹. Further, in test [6], the “EC50, FXa restoring assay” value stood at 1.08 nM and the “Improvement vs parental 2A8” value was 7.3 fold.

B5: 2A8-200 (HC S35D+S55R+K99L/LC Y48F+N51V+D91W) (Fab, V domains shown)
VH: QVQLVESGGGLVQPGGSLRLSCAASGFTFRSYGMDWVRQAPGKGLEWVSSIRGSRSSTYYADSVKGRFTISRDNSKNTLYLQMNSLRAEDTAVYYCARLYRYWFDYWGQGTLVTVSS
VL: DIELTQPPSVSVAPGQTARISCSGDNLRNYYAHWYQQKPGQAPVVVIFYDVNRPSGIPERFSGSNSGNTATLTISGTQAEDEADYYCQSWWDGVPVFGGGTKLTVLG
B5 registered a variant/HC_K99L in test [9] of 19.7 ratio. In test [10], this molecule yielded a variant/HC_K99L of 17.4 ratio. In addition, in test [3], the KD fold improvement amounted to 53.7 fold, binding was put at a Kd of 0.0344 nM, the koff amounted to 9.88e-05 s⁻¹ and the kon is 2.87e+06 M⁻¹ s⁻¹. Besides, the KD fold improvement in [4] came out at 55.4 fold. Besides, in test [6], the “EC50, FXa restoring assay” value was determined as 0.81 nM and the “Improvement vs parental 2A8” value came out at 9.7 fold.

B6: 2A8-127 (HC S35D+K99L/LC Y48F+N51V+G56D+V96W) (Fab, V domains shown)
VH: QVQLVESGGGLVQPGGSLRLSCAASGFTFRSYGMDWVRQAPGKGLEWVSSIRGSSSSTYYADSVKGRFTISRDNSKNTLYLQMNSLRAEDTAVYYCARLYRYWFDYWGQGTLVTVSS
VL: DIELTQPPSVSVAPGQTARISCSGDNLRNYYAHWYQQKPGQAPVVVIFYDVNRPSDIPERFSGSNSGNTATLTISGTQAEDEADYYCQSWDDGVPWFGGGTKLTVLG
In turn, B6 gave a variant/HC_K99L in test [9] of 18.8 ratio. The variant/HC_K99L in test [10] stood at 18.7 ratio. In addition, in [3], the KD fold improvement was 22 fold, binding was characterised by a dissociation constant (Kd) of 0.0841 nM, the koff is 0.000141 s⁻¹ and the kon was found to be 1.68e+06 M⁻¹ s⁻¹. The molecule further yielded a KD fold improvement in test [4] of 18.5 fold. Moreover, in test [6], the “EC50, FXa restoring assay” value is 0.44 nM and the “Improvement vs parental 2A8” value stood at 18.2 fold.

B7: 4B7 HC_D62R (Fab, V domains shown)
VH: QVQLQQSGPGLVKPSQTLSLTCAISGDSVSSNSAAWSWIRQSPGRGLEWLGIIYKRSKWYNRYAVSVKSRITINPDTSKNQFSLQLNSVTPEDTAVYYCARWHSDKHWGFDYWGQGTLVTVSS
VL: DIVMTQSPLSLPVTPGEPASISCRSSQSLVFSDGNTYLNWYLQKPGQSPQLLIYKGSNRASGVPDRFSGSGSGTDFTLKISRVEAEDVGVYYCQQYDSYPLTFGQGTKVEIKR
notes: also called 4B7-D62R
For B7, the “kd fold improvement against 4B7” value in test [11] is approximately 50 fold. In test [12], this molecule registered a variant/wild-type of 32.3 ratio. Also, in [13], the variant/wild-type stood at 230 ratio. In test [1], this molecule came in with an Improvement of 191 fold, a Kd of 0.0582 nM, a koff of 0.000165 s⁻¹ and a kon of 2.83e+06 M⁻¹ s⁻¹. In test [2], the Improvement came to 137 fold, the Kd amounted to 0.427 nM, the koff came to 0.00367 s⁻¹ and the kon is 8.58e+06 M⁻¹ s⁻¹. For the same molecule, in [5], the “IC50, FXa restoring assay” value was 0.058 µg/mL and the “Improvement vs parental, FXa restoring assay” value was determined as 25 fold.
